Laboratory results reported in patent EP1012307B1, “ZYMOGENIC PROTEASE PRECURSORS THAT CAN BE AUTOCATALYTICALLY ACTIVATED AND THEIR USE” (Roche Diagnostics GmbH, priority 1997, dated 1999).
Peptide text beside a SMILES is read from it. * marks the point of attachment. pNA = O=[N+]([O-])c1ccc(N*)cc1; Tos = Cc1ccc(S(=O)(=O)*)cc1

Key:
Assay in all cases: Trypsin activity with Chromozym TH as substrate, kinetic constants kcat and Km
[1] = biological target: T1, humanes Trypsin I, Trypsinvariante rTRYI-VGR (Aktivierungspeptid ValGlyArg, autokatalytisch aktiviert) (Homo sapiens, UniProt P07477); assay type: biochemical; conditions: Substrat: Chromozym®TH; 25°C, 50 mmol/l Tris-HCl, 150 mmol/l NaCl, 5 mmol/l CaCl2, 0,1% PEG 8000, pH 8,0
T1 construct: kodierend für Trypsin I von Aminosäureposition 24-247; made in house
Description: Das N-terminale native Trypsinogen I Prosegment AlaProPheAspAspAspAspLys wurde durch das Aktivierungspeptid ValGlyArg ersetzt. Das TRYI-VGR Trypsinvariantengen wurde analog wie das TRYI-GPK Trypsinvariantengen mittels PCR-Technik hergestellt.
(§1) Die Aktivitätsbestimmung von Trypsin wurde in einem Volumen von 1 ml in 50 mmol/l Tris-HCl, 150 mmol/l NaCl, 5 mmol/l CaCl2, 0,1% PEG 8000, pH 8,0 und 0,1 mmol/l des chromogenen Substrats Chromozym®TH (Tosyl-Gly-Pro-Arg-4-pNA, Kat.-Nr. 838268, Boehringer Mannheim GmbH, Mannheim, Deutschland) bei 25°C durchgeführt. Die Reaktion wurde durch Zugabe von 1-10 µl Trypsin-haltiger Probe (0,4-4 U/ml, gelöst in 1 mmol/l HCl) gestartet und die Absorptionsänderung/min (ΔA/min) bei 405 nm (ε405 = 9,75 [mmol^-1 x 1 x cm^-1]) bestimmt. 1 Chromozym®TH Unit Trypsin ist definiert als die Menge Enzym, die 1 µmol pNitroanilin (pNA) pro min bei 25°C aus dem chromozymen Substrat freisetzt.
Die FXa Aktivitätsbestimmung wurde mit dem chromogenen Substrat Chromozym® X (0,1 mmol/l, N-Methoxycarbonyl-D-Nle-Gly-Arg-pNA, Boehringer Mannheim GmbH, Mannheim, Kat.-Nr. 789763) in einem Volumen von 1 ml bei 25°C in 50 mmol/l Tris-HCl, 150 mmol/l NaCl, 5 mmol/l CaCl2, 0,1% PEG 8000, pH 8,0, durchgeführt. […]

[2] = substrate: Cc1ccc(S(=O)(=O)NCC(=O)N2CCC[C@H]2C(=O)N[C@@H](CCCNC(=N)N)C(=O)Nc2ccc([N+](=O)[O-])cc2)cc1; assay type: biochemical, Schweine; conditions: other: Substrat: Chromozym®TH, 25°C, 50 mmol/l Tris-HCl, 150 mmol/l NaCl, 5 mmol/l CaCl2, 0,1% PEG 8000, pH 8,0
Description: as §1
(§2) Die FXa Aktivitätsbestimmung wurde mit dem chromogenen Substrat Chromozym® X (0,1 mmol/l, N-Methoxycarbonyl-D-Nle-Gly-Arg-pNA, Boehringer Mannheim GmbH, Mannheim, Kat.-Nr. 789763) in einem Volumen von 1 ml bei 25°C in 50 mmol/l Tris-HCl, 150 mmol/l NaCl, 5 mmol/l CaCl2, 0,1% PEG 8000, pH 8,0, durchgeführt. Die Reaktion wurde durch Zugabe von 1-10 µl rFXa-haltiger Probe (0,4-4 U/ml) gestartet und die Absorptionsänderung/min (ΔA/min) bei 405 nm (ε405 = 9,75 [mmol^-1 x 1 x cm^-1]) gemessen. 1 Unit (U) FXa Aktivität ist definiert als die Menge Enzym, die 1 µmol pNA pro min bei 25°C aus dem chromozymen Substrat freisetzt. Die Aktivität und die kinetischen Konstanten wurden aus der linearen Anfangssteigung gemäß der Michaelis-Menten-Gleichung bestimmt. Die Ergebnisse zeigt Tabelle 1. Tabelle 1

[3] = substrate: Cc1ccc(S(=O)(=O)NCC(=O)N2CCC[C@H]2C(=O)N[C@@H](CCCNC(=N)N)C(=O)Nc2ccc([N+](=O)[O-])cc2)cc1; assay type: biochemical, human; conditions: other: Substrat: Chromozym®TH, 25°C, 50 mmol/l Tris-HCl, 150 mmol/l NaCl, 5 mmol/l CaCl2, 0,1% PEG 8000, pH 8,0
Source text: Durch Einführung einer zusätzlichen Disulfidbrücke wurde das humane Trypsin I Isoenzym verändert. Dazu wurde die Aminosäure Pro an Position 132 und die Aminosäure Tyr an Position 233 zu Cys mutiert (Aminosäuresequenz-Nummerierung entsprechend der Publikation von Emi, M. et al. (Gene 41 (1986) 305-310)). Durch diese 2 Punktmutationen (P132C und Y233C) kann sich eine zusätzliche 6-te Disulfidbrücke zwischen den erfindungsgemäß eingeführten Cysteinresten an Position 132 und 233 ausbilden. Zudem wurde die Aminosäure Pro an der Position 133 zu Ala mutiert (P133A).
as §1, §2

`Cc1ccc(S(=O)(=O)NCC(=O)N2CCC[C@H]2C(=O)N[C@@H](CCCNC(=N)N)C(=O)Nc2ccc([N+](=O)[O-])cc2)cc1` [Chromozym®TH, Tosyl-Gly-Pro-Arg-4-pNA] (Tos-Gly-Pro-Arg-pNA) gave a kcat [1] of 95 ± 1 s⁻¹.

B1: Schweine Trypsin (Sigma-Aldrich Chemie GmbH, Kat.-Nr. T-7418) (Sus scrofa) (protein)
chain: IVGGYTCAANSIPYQVSLNSGSHFCGGSLINSQWVVSAAHCYKSRIQVRLGEHNIDVLEGNEQFINAAKIITHPNFNGNTLDNDIMLIKLSSPATLNSRVATVSLPRSCAAAGTECLISGWGNTKSSGSSYPSLLQCLKAPVLSDSSCKSSYPGQITGNMICVGFLEGGKDSCQGDSGGPVVCNGQLQGIVSWGYGCAQKNKPGVYTKVCNYVNWIQQTIAAN
notes: purchased Sigma-Aldrich Chemie GmbH T-7418
B1 was tested, and the Km [2] was 8.5 µM, the kcat [2] was 97 ± 3 s⁻¹ and the kcat/Km [2] was 11,4 1/µM/s.

B2: humanes Trypsin I, Trypsinvariante rTRYI-GPK-SS (P132C, P133A, Y233C; zusätzliche Disulfidbrücke) (Homo sapiens; P132C/P133A/Y233C) (protein)
chain: IVGGYNCEENSVPYQVSLNSGYHFCGGSLINEQWVVSAGHCYKSRIQVRLGEHNIEVLEGNEQFINAAKIIRHPQYDRKTLNNDIMLIKLSSRAVINARVSTISLPTACAATGTKCLISGWGNTASSGADYPDELQCLDAPVLSQAKCEASYPGKITSNMFCVGFLEGGKDSCQGDSGGPVVCNGQLQGVVSWGDGCAQKNKPGVYTKVCNYVKWIKNTIAANS
notes: kodierend für Trypsin I von Aminosäureposition 24-247; the Lys is residue 23) (N, cleaved yes); made in house
B2 was tested, and the Km [3] was 19 ± 1 µM, the kcat [3] was 99 ± 2 s⁻¹ and the kcat/Km [3] was 5,2 1/µM/s.
